These results are taken from US20190300613A1 (TUSK THERAPEUTICS, published 2019).

The target in assay [1] is T1, recombinant human CD25 his tagged (human, UniProt P01589 22-240).
T1 construct: also called rhCD25; rhCD25-his tag; not shown: His tag
T1 sequence: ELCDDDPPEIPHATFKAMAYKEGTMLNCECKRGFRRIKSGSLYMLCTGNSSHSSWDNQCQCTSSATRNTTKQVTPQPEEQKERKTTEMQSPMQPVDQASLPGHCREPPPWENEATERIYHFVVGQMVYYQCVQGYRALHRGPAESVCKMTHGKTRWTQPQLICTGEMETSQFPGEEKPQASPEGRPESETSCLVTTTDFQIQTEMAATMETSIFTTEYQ
The assay can be described thus: SPR, Biacore 2000: IgG1 captured on the chip, rhCD25-his tag as analyte. (In general: SPR reads the build-up and loss of mass on a sensor chip optically.)

In assay [2] the target is T1, recombinant human CD25 his tagged. Described as above. The source holds these as a separate data set.
The target is the same in assay [3]. Described as above. This is another data set of the same source.
Assay [4] has the same target. The description is as above. The source holds these as a separate data set.
Assay [5] shares this target. The description is as above. The source holds these as a separate data set.
The target is the same in assay [6]. The assay can be described thus: SPR, Biacore 2000, IgG captured by anti-human antibody on CM5, rhCD25-His as analyte, two state reaction fit.
Procedure: Anti-human antibody was initially immobilised across all flow cells in analysis buffer (pH 7.4, 10 mM HEPES, 150 mM NaCl, 3 mM EDTA, 0.05% Tween 20) to an RU of between 12,000-14,000 over 10 minutes. […] Dissociation was performed in analysis buffer over 10 minutes. Regeneration steps between sample concentrations were performed in 10 mM Glycin pH1.7 for 10 minutes. A flow rate of 25 μl/min was maintained throughout the process. Kinetics data were fit using a global two state reaction conformational change analysis software provided by Biacore with reference subtraction.
Assay [7] has the same target. The assay can be described thus: BLI, ForteBio Octet Red96, IgG on AHC sensors, rhCD25-His in solution, global 1:1 fit.
Procedure: Sensors were equilibrated off-line in assay buffer for 10 min and then monitored on-line for 60 seconds for baseline establishment. […] Then, 1:3 serial dilutions (from 1 uM to 4 nM) of recombinant human CD25 HIS tagged was associated to the loaded IgG for 10 min. Afterwards they were transferred to assay buffer for 6.6 min for off-rate measurement. Kinetics data were fit using a global 1:1 binding model in the ForteBio Data Analysis Software 9.0 with reference subtraction.
In assay [8] the target is T2, human CD25 expressed on cells (human, UniProt P01589 22-272).
T2 construct: Endogenous CD25 on human cell lines and primary cells
T2 sequence: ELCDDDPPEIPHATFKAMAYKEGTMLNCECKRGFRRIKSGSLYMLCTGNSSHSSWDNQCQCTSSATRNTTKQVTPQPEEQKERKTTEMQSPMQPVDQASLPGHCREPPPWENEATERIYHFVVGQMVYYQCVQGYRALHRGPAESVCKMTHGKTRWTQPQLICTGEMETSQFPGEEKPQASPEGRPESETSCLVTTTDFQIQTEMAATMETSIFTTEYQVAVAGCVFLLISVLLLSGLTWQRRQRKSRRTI
The assay can be described thus: flow cytometry on CD3/CD28 bead activated human Pan T cells, gated on CD4+ T cells. A general note: In flow cytometry, cells or beads pass a laser one at a time.
Procedure: (§1) Binding to CD25 expressing activated human and Cynomolgus monkey PMBC was examined by staining test articles (anti-CD25 primary antibodies) with 20 μg/ml antibodies followed by semi-log dilution series (7-point) for 30 minutes on ice. This was followed by staining with a secondary antibody (rabbit anti-human Fcg F(ab′)2-(Jackson ImmunoResearch)) concentration of 5 μg/ml for 30 minutes on ice. All samples were stained in triplicates. To minimize cross-linking induced cell death mediated by binding of the secondary antibody, cell lines were examined in staining cohorts of 4 test articles at a time. Live lymphocytes were gated using FSC vs SSC parameters by flow cytometry during sample acquisition. Mean fluorescence intensity (MFI) of gated CD4⁺ and CD8⁺ T cell subsets were plotted on an XY chart, graphing MFI against the log of the concentration, and the data fit to a non-linear regression curve from which the EC50 was calculated.

Assay [9] addresses T3, human CD25 antigen, Sino Biologicals cat no. 10165-H08H (~20% dimer) (human, UniProt P01589 22-213).
T3 construct: Bought protein; also called Sino biological (~20% dimer)
T3 sequence: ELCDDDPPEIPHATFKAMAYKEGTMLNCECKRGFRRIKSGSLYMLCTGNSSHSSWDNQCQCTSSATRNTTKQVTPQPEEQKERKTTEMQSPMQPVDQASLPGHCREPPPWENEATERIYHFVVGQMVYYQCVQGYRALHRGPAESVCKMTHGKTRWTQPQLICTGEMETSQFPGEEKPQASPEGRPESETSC
The assay can be described thus: SPR, Biacore T200, antibody captured by anti-human Fab on CM5, CD25 as analyte, Two State Reaction fit; column printed as 'Binding strength'; Sino Biological CD25 (~20% dimer), Two State Reaction fit.
Source text: (§2) Binding of CD25 antibodies to human CD25 antigen was investigated by surface plasmon resonance using a BIACORE T200 instrument (GE Healthcare).
(§3) For calculation of KD and kinetic parameters Biacore provided fitting models were used to obtain optimal curve fitting results. The 1:1 Langmuir fit was used for P1AA5872 and the Two State Kinetic fitting for CD25 from Sino Biologicals and R&D Systems.

Assay [10] has as its target T4, inhouse produced monomeric human CD25 antigen (P1AA5872) (human, UniProt P01589 22-240, limits assumed).
T4 construct: also called Inhouse (0% dimer)
T4 sequence: T1 sequence
The assay can be described thus: SPR, Biacore T200, antibody captured by anti-human Fab on CM5, monomeric CD25 as analyte, 1:1 Langmuir fit; column printed as 'Binding strength'.
Source text: as §2, §3

Assay [11] has as its target T2, human CD25 expressed on cells. The assay can be described thus: flow cytometry on CD3/CD28 bead activated human Pan T cells, gated on CD8+ T cells.
Procedure: as §1
Assay [12] addresses T5, human CD25 antigen, R&D Systems cat no. 223-2A/CF (~10% dimer) (human, UniProt P01589 22-213, limits assumed).
T5 construct: Bought protein; also called R&D Systems (~10% dimer)
T5 sequence: T3 sequence
Nature of the assay: SPR, Biacore T200, antibody captured by anti-human Fab on CM5, CD25 as analyte, Two State Reaction fit; column printed as 'Binding strength'.
Source text: as §2, §3

Numbering of substitutions follows the chain as printed.

B1: aCD25-a-646-m2 (antibody, IgG1, V domains shown)
VH: QVQLVESGGGLVQPGGSLRLSCAASGFTFPSYGMHWVRQAPGKGLEWVAVIWYDAINKYYADSVKGRFTISRDNSKNTLYLQMNSLRAEDTAVYYCARDLGYGDYAAHDYWGQGTLVTVSS
VL: DIQMTQSPSTLSASVGDRVTITCRASQSISSWLAWYQQKPGKAPKLLIYKASSLESGVPSRFSGSGSGTEFTLTISSLQPDDFATYYCQQHNTHPYTFGGGTKVEIK
Consider B1, for which the Kd in assay [1] is 0.36 nM.

B2: aCD25-a-646-m5 (antibody, IgG1, V domains shown)
VH: B1 VH with Q1E, V5L, I56L
VL: B1 VL
Take B2: the Kd in assay [2] is 0.31 nM.

B3: aCD25-a-646-m1 (antibody, IgG1, V domains shown)
VH: B1 VH with Q1E, Q13K, P30A, I56S, N57T
VL: B1 VL
As for B3, in [3], the Kd came to 1.43 nM.

B4: aCD25-a-646-m3 (antibody, IgG1, V domains shown)
VH: B1 VH with L11V, G16R, I56V
VL: B1 VL
On to B4, for which the equilibrium dissociation constant (Kd) in assay [4] is 0.42 nM.

B5: aCD25-a-646-m4 (antibody, IgG1, V domains shown)
VH: B1 VH with L11V, G16R, I56S, N57T
VL: B1 VL
For the molecule B5, the dissociation constant Kd in [5] amounted to 0.56 nM.

B6: aCD25-a-646 (antibody, V domains shown)
VH: B1 VH with L11V, G16R, P30S, A55G, I56S, Y59G
VL: B1 VL
notes: also called parental clone
Turning to B6, the dissociation constant (Kd) in assay [6] worked out at 3.8 nM; in assay [7], 3.65 nM; in [9], 8.5 nM; in [10], 77 nM; in assay [12], 15 nM. For the same molecule, the concentration for a half-maximal effect (EC50 (read off the curve)) in assay [8] and in assay [11] was ~0.2 µg/mL throughout.

As a reminder, the Kd is the equilibrium constant for the complex coming apart. Broadly, the EC50 (read off the curve) is the concentration that produces a half-maximal response.
